Experiment [1] has as its target T1, SARS-CoV-2 (2019-nCoV) spike S1-Fc recombinant protein (Sino Biological, Inc.) (SARS-CoV-2, UniProt P0DTC2 16-685).
For experiment [2], the target named is T1, SARS-CoV-2 (2019-nCoV) spike S1-Fc …. This is another data set of the same source.
For experiment [3], the target named is Trimeric SARS-CoV-2 spike antigen full-length (Bio-Serv) (SARS-CoV-2, UniProt P0DTC2 14-1273). The experiment in a line: ELISA, VHH on nickel plate, spike in solution (0-500 ng/mL). On the technique in general: In an ELISA, binding on a coated surface is turned into a signal by an enzyme label.

Substitutions are numbered along the chain they refer to. Numbers in names are those of the source. Like-named read-outs stand apart in the source and are kept apart here.

By Kd is commonly meant the concentration at which binding is half-saturated. By koff is commonly meant a measure of how fast the partners let go of each other. The kon is the rate constant with which the complex forms.

B1: Bacillus subtilis-derived VHH-COVE1 (VHH)
VHH: AEVQLVESGGGLVQPGGSLRLSCAASGFAFSSYPMYWVRQAPGKGLEWISFIDGEGTSTSYADSVKGRFTISRDNAKNTVYLQMNSLKPEDTAVYYCNALLRRYNYGFTFDNYWGQGTQVTVSSGGGSHHHHHH
In the case of B1, in experiment [1], the Kd stood at 3.63 nM, the koff was determined as 0.00028 s⁻¹ and the kon was 77000 M⁻¹ s⁻¹.

B2: VHH-COVE9-R108K (VHH)
VHH: AEVQLVESGGGLVQPGGSLRLSCAASGTIFSTNAMSWYRQAPGKQRELVAAITSGGNTNYADSVKGRFTISRDNAKNTVYLQMNSLKPEDTAVYYCNAPGVVTGSYDVKNYWGQGTQVTVSSGSHHHHHH
In the case of B2, in experiment [2], the Kd stood at 3.28 nM, the koff came to 0.000437 s⁻¹ and the kon was 133000 M⁻¹ s⁻¹.

B3: VHH-COVE9-N109D (VHH)
VHH: B2 VHH with K109R, N110D
For the molecule B3, in experiment [2], the Kd was determined as 8.38 nM, the koff worked out at 0.00106 s⁻¹ and the kon was determined as 126000 M⁻¹ s⁻¹.

B4: VHH-COVE9-Y110S (VHH)
VHH: B2 VHH with K109R, Y111S
Take B4: in experiment [2], the Kd stood at 4.74 nM, the koff was determined as 0.000683 s⁻¹ and the on-rate constant (kon) turned out to be 144000 M⁻¹ s⁻¹.

B5: Bacillus subtilis-derived VHH-COVE2 (VHH)
VHH: AEVQLVESGGGLVQAGDSLRLSCAATRRTSSTYAMGWFRQAPGKGLEWVAAISWDGGRTYYAESVKGRFTISRDNAKNTVYLQMNSLKPEDTAVYYCYSFGGSDFLMDYWGQGTQVTVSSGGGSHHHHHH
Take B5: the “absorbance (450 nm)” value in experiment [3] turned out to be 0.97.

B6: Bacillus subtilis-derived VHH-COVE3 (VHH)
VHH: AEVQLVESGGGFVQAGGSLRLSCRVSAPTFMTYTMAWFRQAPGNEREFVAALSKNFVTTSYADSVKGRFTISRDNAKNTVYLQMNSLKPEDTAVYYCNVAWSDYEYLEVWGQGTLVTVSSGGGSHHHHHH
Take B6: the “absorbance (450 nm)” value in experiment [3] worked out at 0.97.

B7: Bacillus subtilis-derived VHH-COVE9 (VHH)
VHH: EVQLVESGGGLVQPGGSLRLSCAASGTIFSTNAMSWYRQAPGKQRELVAAITSGGNTNYADSVKGRFTISRDNAKNTVYLQMNSLKPEDTAVYYCNAPGVVTGSYDVRNYWGQGTQVTVSS
For the molecule B7, the “absorbance (450 nm)” value in experiment [3] came out at 0.97.

B8: Bacillus subtilis-derived VHH-COVE5 (VHH)
VHH: EVQLVESGGGLVQAGGSLRLSCTASDQIFDNYNMAWFRQSPGKEREFVAALSWGDSNTGYADSVKGRFTISRDNAKNTVYLQMNSLKPEDTAVYYCYAVTWLRGDYWGQGTQVTVSS
B8: the “absorbance (450 nm)” value in experiment [3] came to 0.97.

B9: Bacillus subtilis-derived VHH-COVE8 (VHH)
VHH: EVQLVESGGGLVQPGGSLTLSCAASGQTFSSYNMAWFRQSPGKEREFVATISWGGGSTGYADSVKGRFTISRDHAKNTVYLQMKDLKPEDTGAYYCYLVGLFGIQASDYWGQGTQVTVSS
Take B9: the “absorbance (450 nm)” value in experiment [3] stood at 0.97.

B10: Bacillus subtilis-derived VHH-COVE7 (VHH)
VHH: EVQLVESGGGLVQAGDSLRLSCTASGRTFSSCAMGWFRQAPGKEREFVAAISRGGGSTSYADSVKGRFTISKDRARNTAYLEMNSLKPEDTAIYYCYAVFPSGGDYWGQGTQVTVSS
With B10, the “absorbance (450 nm)” value in experiment [3] came out at 0.97.

B11: Bacillus subtilis-derived VHH-COVE4 (VHH)
VHH: AEVQLVESGGDVVQPGGSLRLSCAASGFTFTTYAMTWVRQAPGEGLEAVSTISGADGSTYYADSVKGRFTISRDNANNTVYLQMNSLKPEDTAVYYCAATPWYSASHTYWGQGTQVTVSSGGGSHHHHHH
Turning to B11, in experiment [1], the Kd turned out to be 0.997 nM, the koff was 0.000114 s⁻¹ and the kon amounted to 115000 M⁻¹ s⁻¹.

The record behind these values is patent US20230365659A1 (EPSILON MOLECULAR ENGINEERING, published 2023).
